Publication PMC4107794 (The Journal of Cell Biology, 2014)

Columns and labels:
GST-Rad18 = GST-Rad18 (UniProt Q9NS91 1-495); test: pull-down
FLAG-Rad18 = FLAG-Rad18 (UniProt Q9NS91 1-495); test: pull-down
Sequence of FLAG-Rad18 (Q9NS91 whole entry): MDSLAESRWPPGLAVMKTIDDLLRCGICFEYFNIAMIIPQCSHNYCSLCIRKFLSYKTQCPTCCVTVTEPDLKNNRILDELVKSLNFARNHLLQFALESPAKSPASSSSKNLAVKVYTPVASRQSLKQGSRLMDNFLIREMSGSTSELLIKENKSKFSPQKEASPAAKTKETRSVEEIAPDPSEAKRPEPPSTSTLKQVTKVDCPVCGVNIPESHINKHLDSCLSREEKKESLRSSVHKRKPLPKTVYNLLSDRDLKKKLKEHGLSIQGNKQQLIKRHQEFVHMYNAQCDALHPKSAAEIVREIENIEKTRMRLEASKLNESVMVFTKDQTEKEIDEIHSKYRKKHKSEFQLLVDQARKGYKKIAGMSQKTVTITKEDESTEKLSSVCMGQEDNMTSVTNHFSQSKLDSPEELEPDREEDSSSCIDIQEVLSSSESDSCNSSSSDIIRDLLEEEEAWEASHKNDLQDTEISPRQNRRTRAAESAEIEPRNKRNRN

Sequence of GST-Rad18 (Q9NS91 whole entry): as above

B1: FLAG-SHPRH (natural protein)
chain: MSSRRKRAPPVRVDEEKRQQLHWNMHEDRRNEPIIISDDDEQPCPGSDTSSAHYIILSDSLKEEVAHRDKKRCSKVVSFSKPIEKEETVGIFSPLSVKLNIVISPYHFDNSWKAFLGELTLQLLPAQSLIENFSERSITLMSSESSNQFLIYVHSKGEDVEKQKKEPMSICDKGILVESSFSGEMLEDLGWLQKKRRIKLYQKPEGNHIIKVGIYLLEAGLAKLDFLSDANSRMKKFNQLMKKVMEKLHNSIIPDVLEEDEDDPESEPEGQDIDELYHFVKQTHQQETQSIQVDVQHPALIPVLRPYQREAVNWMLQQECFRSSPATESALHFLWREIVTSEGLKLYYNPYTGCIIREYPNSGPQLLGGILADEMGLGKTVEVLALILTHTRQDVKQDALTLPEGKVVNYFIPSHYFGGKLKKTEIQNIEFEPKEKVQCPPTRVMILTAVKEMNGKKGVSILSIYKYVSSIYRYDVQRNRSLLKRMLKCLIFEGLVKQIKGHGFSGTFTLGKNYKEEDICDKTKKQAVGSPRKIQKETRKSGNKDTDSEYLPSDTSDDDDDPYYYYYKSRRNRSKLRKKLVPSTKKGKSQPFINPDSQGHCPATSDSGITDVAMSKSTCISEFNQEHETEDCAESLNHADSDVPPSNTMSPFNTSDYRFECICGELDQIDRKPRVQCLKCHLWQHAKCVNYDEKNLKIKPFYCPHCLVAMEPVSTRATLIISPSSICHQWVDEINRHVRSSSLRVLVYQGVKKDGFLQPHFLAEQDIVIITYDVLRSELNYVDIPHSNSEDGRRLRNQKRYMAIPSPLVAVEWWRICLDEAQMVECPTVKAAEMAQRLSGINRWCISGTPVQRGLEDLFGLVVFLGIEPYCVKHWWVRLLYRPYCKKNPQHLYSFIAKILWRSAKKDVIDQIQIPPQTEEIHWLHFSPVERHFYHRQHEVCCQDVVVKLRKISDWALKLSSLDRRTVTSILYPLLRLRQACCHPQAVRGEFLPLQKSTMTMEELLTSLQKKCGTECEEAHRQLVCALNGLAGIHIIKGEYALAAELYREVLRSSEEHKGKLKTDSLQRLHATHNLMELLIARHPGIPPTLRDGRLEEEAKQLREHYMSKCNTEVAEAQQALYPVQQTIHELQRKIHSNSPWWLNVIHRAIEFTIDEELVQRVRNEITSNYKQQTGKLSMSEKFRDCRGLQFLLTTQMEELNKCQKLVREAVKNLEGPPSRNVIESATVCHLRPARLPLNCCVFCKADELFTEYESKLFSNTVKGQTAIFEEMIEDEEGLVDDRAPTTTRGLWAISETERSMKAILSFAKSHRFDVEFVDEGSTSMDLFEAWKKEYKLLHEYWMALRNRVSAVDELAMATERLRVRDPREPKPNPPVLHIIEPHEVEQNRIKLLNDKAVATSQLQKKLGQLLYLTNLEKSQDKTSGGVNPEPCPICARQLGKQWAVLTCGHCFCNECISIIIEQYSVGSHRSSIKCAICRQTTSHKEISYVFTSEKANQEEDIPVKGSHSTKVEAVVRTLMKIQLRDPGAKALVFSTWQDVLDIISKALTDNNMEFAQISRVKTFQENLSAFKRDPQINILLLPLHTGSNGLTIIEATHVLLVEPILNPAHELQAIGRVHRIGQTKPTIVHRFLIKATIEERMQAMLKTAERSHTNSSAKHSEASVLTVADLADLFTKETEELE
B1: binds (GST-Rad18); binds (FLAG-Rad18).
